Results published in patent publication US20180369355A1 (TEXAS A AND M UNIVERSITY SYSTEM, published 2018).

B2: Fg γ-peptide P16 (peptide)
peptide: GEGQQHHLGGAKQAGAV
notes: domain: γ-peptide; Position 410 probably counts on the mature γ-chain; also called P16 peptide; Fg-γ P16 peptide
B3: ClfAPWY (other)
chain: VAADAPAAGTDITNQLTNVTVGIDSGTTVYPHQAGYVKLNYGFSVPNSAVKGDTFKITVPKELNLNGVTSTAKVPPIMAGDQVLANGVIDSDGNVIYTFTDYVNTKDDVKATLTMPAYIDPENVKKTGNVTLATGIGSTTANKTVLVDYEKYGKFYNLSIKGTIDQIDKTNNTYRQTIYVNPSGDNVIAPVLTGNLKPNTDSNALIDQQNTSIKVYKVDNAADLSESYFVNPENFEDVTNSVNITFANPNQYKVEFNTPDDQITTPYIVVVNGHIDPNSKGDLALRSTLYGANSNIIARSMSWDNEVAFNNGSGSGDGIDKPVVPEQPDEPGEIEPIPE
notes: also called triple mutant

What was measured:
human fibrinogen [1] = molecular target: T1, human fibrinogen (human, UniProt P02671 20-629; P02675 31-491; P02679 27-437); assay: SPR (Biacore), drawn table Ligand/analyte: fibrinogen immobilized, ClfA N3 domain (ClfA370-559) as analyte
T1 construct: also called Fg; intact Fg
T1 sequence 1: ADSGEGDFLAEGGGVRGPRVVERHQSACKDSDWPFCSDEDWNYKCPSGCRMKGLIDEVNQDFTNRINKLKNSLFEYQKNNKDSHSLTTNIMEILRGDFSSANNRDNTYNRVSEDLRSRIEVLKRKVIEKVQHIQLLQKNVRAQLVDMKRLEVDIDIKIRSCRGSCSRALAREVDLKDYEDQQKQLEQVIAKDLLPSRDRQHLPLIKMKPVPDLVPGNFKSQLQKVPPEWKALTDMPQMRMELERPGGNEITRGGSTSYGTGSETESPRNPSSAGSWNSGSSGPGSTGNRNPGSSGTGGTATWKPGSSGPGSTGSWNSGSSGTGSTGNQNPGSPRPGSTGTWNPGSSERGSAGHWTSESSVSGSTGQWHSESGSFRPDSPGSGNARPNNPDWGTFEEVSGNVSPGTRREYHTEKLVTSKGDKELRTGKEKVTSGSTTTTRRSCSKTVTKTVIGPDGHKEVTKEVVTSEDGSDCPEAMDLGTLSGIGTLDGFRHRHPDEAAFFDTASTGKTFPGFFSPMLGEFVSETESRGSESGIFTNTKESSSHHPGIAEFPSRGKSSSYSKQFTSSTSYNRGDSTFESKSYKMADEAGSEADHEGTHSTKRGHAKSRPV
T1 sequence 2: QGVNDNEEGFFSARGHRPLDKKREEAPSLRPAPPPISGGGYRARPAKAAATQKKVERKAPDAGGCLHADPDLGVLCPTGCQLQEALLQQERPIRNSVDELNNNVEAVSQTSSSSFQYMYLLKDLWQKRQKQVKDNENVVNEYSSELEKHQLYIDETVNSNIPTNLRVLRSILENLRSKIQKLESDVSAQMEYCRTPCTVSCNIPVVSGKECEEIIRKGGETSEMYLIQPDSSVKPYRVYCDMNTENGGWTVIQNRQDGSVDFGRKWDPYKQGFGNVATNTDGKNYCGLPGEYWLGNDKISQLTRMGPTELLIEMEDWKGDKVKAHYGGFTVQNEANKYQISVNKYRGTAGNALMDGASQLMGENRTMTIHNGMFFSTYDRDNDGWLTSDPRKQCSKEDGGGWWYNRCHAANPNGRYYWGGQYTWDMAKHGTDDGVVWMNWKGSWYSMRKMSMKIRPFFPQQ
T1 sequence 3: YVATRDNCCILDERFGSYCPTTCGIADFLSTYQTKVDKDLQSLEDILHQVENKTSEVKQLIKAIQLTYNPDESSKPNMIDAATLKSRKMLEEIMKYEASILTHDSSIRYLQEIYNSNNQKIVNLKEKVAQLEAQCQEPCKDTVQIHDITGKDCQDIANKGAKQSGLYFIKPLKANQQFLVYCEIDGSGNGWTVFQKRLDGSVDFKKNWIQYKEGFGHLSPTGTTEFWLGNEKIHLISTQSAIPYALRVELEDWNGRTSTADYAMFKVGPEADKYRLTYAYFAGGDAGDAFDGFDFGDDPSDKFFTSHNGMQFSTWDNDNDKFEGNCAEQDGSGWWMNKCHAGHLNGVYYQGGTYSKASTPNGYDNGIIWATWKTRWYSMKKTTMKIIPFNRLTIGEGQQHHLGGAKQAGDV

human fibrinogen [2] = molecular target: T1, human fibrinogen; assay: SPR; immobilized Fg against γ-peptide
Fg D-fragment [3] = molecular target: T2, Fg D-fragment (UniProt P02671 130-216; P02675 164-491; P02679 114-437); assay: SPR; immobilized Fg D-fragment against γ-peptide
T2 construct: domain: D-fragment; also called D-domain
T2 sequence 1: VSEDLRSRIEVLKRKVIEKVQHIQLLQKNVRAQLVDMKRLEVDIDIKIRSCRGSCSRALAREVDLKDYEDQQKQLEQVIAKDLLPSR
T2 sequence 2: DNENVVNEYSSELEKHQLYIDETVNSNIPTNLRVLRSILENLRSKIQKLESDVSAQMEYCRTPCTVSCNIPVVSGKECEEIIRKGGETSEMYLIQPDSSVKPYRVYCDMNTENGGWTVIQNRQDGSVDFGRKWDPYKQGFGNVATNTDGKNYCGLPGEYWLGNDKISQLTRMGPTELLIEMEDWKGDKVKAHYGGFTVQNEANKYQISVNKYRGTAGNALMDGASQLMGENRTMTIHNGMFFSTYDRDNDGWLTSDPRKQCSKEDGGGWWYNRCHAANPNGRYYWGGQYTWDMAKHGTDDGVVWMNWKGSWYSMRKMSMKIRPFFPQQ
T2 sequence 3: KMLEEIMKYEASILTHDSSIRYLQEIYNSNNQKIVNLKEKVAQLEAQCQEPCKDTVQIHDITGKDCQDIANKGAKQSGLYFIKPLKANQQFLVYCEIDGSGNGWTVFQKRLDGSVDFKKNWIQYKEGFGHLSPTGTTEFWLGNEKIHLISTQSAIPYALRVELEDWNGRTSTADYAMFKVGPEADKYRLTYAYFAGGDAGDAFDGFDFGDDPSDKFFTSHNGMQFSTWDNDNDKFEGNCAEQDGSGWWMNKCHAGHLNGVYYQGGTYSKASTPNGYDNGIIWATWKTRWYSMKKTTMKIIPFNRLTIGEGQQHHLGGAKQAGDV

Fg D-fragment [4] = molecular target: T2, Fg D-fragment; assay: SPR (Biacore), drawn table Ligand/analyte: Fg D-fragment immobilized, ClfA N3 domain (ClfA370-559) as analyte
ClfACC [5] = molecular target: T3, ClfACC (S. aureus, UniProt Q53653 229-545, engineered disulfide bond between C327 and C541); assay: ITC, peptide titrated into ClfACC (paragraph 56 gives this KD as '9' without a unit and calls the peptide a synthetic C-terminal γ-chain peptide; the sheet names it P16)
T3 construct: also called disulfide bond-closed ClfACC; closed form of ClfA N2N3
T3 sequence: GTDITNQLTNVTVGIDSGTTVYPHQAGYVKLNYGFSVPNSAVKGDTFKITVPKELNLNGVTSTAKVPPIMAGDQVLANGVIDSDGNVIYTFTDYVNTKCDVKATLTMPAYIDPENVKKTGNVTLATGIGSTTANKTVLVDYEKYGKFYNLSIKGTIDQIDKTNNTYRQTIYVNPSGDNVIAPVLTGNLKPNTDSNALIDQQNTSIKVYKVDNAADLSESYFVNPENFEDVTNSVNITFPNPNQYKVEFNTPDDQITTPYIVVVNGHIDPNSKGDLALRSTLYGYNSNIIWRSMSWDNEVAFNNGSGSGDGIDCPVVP

ClfAPWY = molecular target: B3; assay: ITC; 0.5 mM P16 injected into 30 µM ClfAPWY, 30 °C; ITC, P16 peptide
Fg γ-peptide P16 [6] = molecular target: B2; assay: ITC, 0.5 mM P16 peptide injected into 30 µM ClfAPWY; OneSites fit box
Fg D-fragment [7] = molecular target: T2, Fg D-fragment; assay: SPR; immobilized D-fragment; estimated; SPR, D-fragment, estimated, data not shown
human fibrinogen [8] = molecular target: T1, human fibrinogen; assay: SPR; immobilized Fg; estimated; SPR, Fg, estimated, data not shown
Fg γ-peptide P16 [9] = molecular target: B2; assay: ITC, 0.5 mM P16 peptide injected into 30 µM ClfAPWY; OneSites fit box, unit not given
ClfACC [10] = molecular target: T3, ClfACC; assay: ITC; peptide titrated into a cell containing ClfACC; the unit is missing in the print; γ-chain peptide titrated into ClfACC

B1: ClfA370-559 (other)
chain: EKYGKFYNLSIKGTIDQIDKTNNTYRQTIYVNPSGDNVIAPVLTGNLKPNTDSNALIDQQNTSIKVYKVDNAADLSESYFVNPENFEDVTNSVNITFPNPNQYKVEFNTPDDQITTPYIVVVNGHIDPNSKGDLALRSTLYGYNSNIIWRSMSWDNEVAFNNGSGSGDGIDKPVVPEQPDEPGEIEPIPE
notes: also called recombinant form of N3
- Kd (human fibrinogen [1]): 5.9 µM
- fold lower KD than for the γ-peptide (human fibrinogen [2]): ~10 fold
- fold lower KD than for the γ-peptide (Fg D-fragment [3]): ~10 fold
- Kd (Fg D-fragment [4]): 6.9 µM

Binder: B2
- Kd (ClfACC [5]): 9 µM
- Kd (ClfAPWY): ~5.8 µM

Binder: B3
- N (Fg γ-peptide P16 [6]): 1.23
- Kd (Fg D-fragment [7]): 17 µM
- Kd (human fibrinogen [8]): 10 µM
- ΔH (Fg γ-peptide P16 [9]): -6790
- ΔS (Fg γ-peptide P16 [9]): 1.59

B4: synthetic C-terminal γ-chain peptide (peptide)
peptide: GEGQQHHLGGAKQAGDV
notes: domain: C-terminal γ-chain peptide; also called Fg γ-peptide; synthetic Fg γ-peptide
- Kd (ClfACC [10]): 9 µM
